In patent US20030200558A1 (MONSANTO, published 2003):

B1: β-conglycinin β subunit mutant 39335-70 (other)
chain: MDYKDDDDKLKVREDENNPFYLRSSNSFQTLFENQNGRIRLIQRFNKRSPQIENLRDYRIVQFQSKPNTIILPHHADADFIIIILSGRAIITIVNNDDRDSYNIHPGDAQRIPAGTTYYIINPHDHQNLKIIKIAIPVNKPGRYDDFFLSSTQAQQSYLQGFSHNILETSFHSEFEEINRVLLGEEEEQRQQEGVIVELSKEQIRQLSRRAKSSSRKTISSEDEPFNLRSRNPIYSNNFGKFFEITPEKTPQIRDLDIFLSSVDINEGALLLPHFNSKAIVILVINEGDANIELVGIKEQQQKQKQEEEPLEVQRYRAELSEDDIIVIPAAYPFVVNATSNLNIIAIGINAENNQRNFLAGEKDNVVRQIERQVQELAFPGSAQDVERLLKKQRESYFVDAQPQQKEEGSKGRKGPFPSILGALY
B2: β-conglycinin β subunit mutant 39335-31 (other)
chain: MDYKDDDDKLKVREDENNPFYLRSSNSFQTLFENQNGRIRLIQRFNKRSPQLENLRDYRIVQFQSKPNTIILPHHADADFIIIILSGRAIITIVNNDDRDSYNIHPGDAIRIPAGTTYYIINPHDHQNLKIIKIAIPVNKPGRYDDFFLSSTQAQQSYLQGFSHNILETSFHSEFEEINRVLLGEEEEQRQQEGVIVELSKEQIRQLSRRAKSSSRKTISSEDEPFNLRSRNPIYSNNFGKIFEITPEKTPQLRDLDIFISSVDINEGALILPHFNSKAIVILVINEGDANIEIVGIKEQQQKQKQEEEPLEVQRYRAELSEDDIIVIPAAYPFVINATSNLNFLAFGINAENNQRNFLAGEKDNVVRQIERQVQELAFPGSAQDVERLLKKQRESYFVDAQPQQKEEGSKGRKGPFPSILGALY
B3: β-conglycinin β subunit mutant 39335-51 (other)
chain: MDYKDDDDKLKVREDENNPFYLRSSNSFQTLFENQNGRIRLIQRFNKRSPQLENLRDYRIVQIQSKPNTIILPHHADADFIIIILSGRAIITIVNNDDRDSYNIHPGDAIRIPAGTTYYIINPHDHQNLKIIKIAIPVNKPGRYDDFFLSSTQAQQSYLQGFSHNILETSFHSEFEEINRVLLGEEEEQRQQEGVIVELSKEQIRQLSRRAKSSSRKTISSEDEPFNLRSRNPIYSNNFGKFFEITPEKTPQLRDLDIFISSVDINEGALLLPHFNSKAIVILVINEGDANIEIVGIKEQQQKQKQEEEPLEVQRYRAELSEDDIIVIPAAYPFVVNATSNLNIIAIGINAENNQRNFLAGEKDNVVRQIERQVQELAFPGSAQDVERLLKKQRESYFVDAQPQQKEEGSKGRKGPFPSILGALY
B4: β-conglycinin β subunit mutant 39335-42 (other)
chain: MDYKDDDDKLKVREDENNPFYLRSSNSFQTLFENQNGRIRLIQRFNKRSPQLENLRDYRIVQIQSKPNTIILPHHADADFIIIILSGRAILTLVNNDDRDSYNIHPGDAIRIPAGTTYYIINPHDHQNLKIIKIAIPVNKPGRYDDFFLSSTQAQQSYLQGFSHNILETSFHSEFEEINRVLLGEEEEQRQQEGVIVELSKEQIRQLSRRAKSSSRKTISSEDEPFNLRSRNPIYSNNFGKIFEITPEKTPQLRDLDIFLSSVDINEGALLLPHFNSKAIVILVINEGDANIELVGIKEQQQKQKQEEEPLEVQRYRAELSEDDIIVIPAAYPFVVNATSNLNFLAFGINAENNQRNFLAGEKDNVVRQIERQVQELAFPGSAQDVERLLKKQRESYFVDAQPQQKEEGSKGRKGPFPSILGALY
B5: β-conglycinin β subunit mutant 39335-56 (other)
chain: MDYKDDDDKLKVREDENNPFYLRSSNSFQTLFENQNGRIRLIQRFNKRSPQLENLRDYRIVQIQSKPNTIILPHHADADFIIIILSGRAIITIVNNDDRDSYNIHPGDAIRIPAGTTYYIINPHDHQNLKIIKIAIPVNKPGRYDDFFLSSTQAQQSYLQGFSHNILETSFHSEFEEINRVLLGEEEEQRQQEGVIVELSKEQIRQLSRRAKSSSRKTISSEDEPFNLRSRNPIYSNNFGKIFEITPEKTPQLRDLDIFISSVDINEGALLLPHFNSKAIVILVINEGDANIEIVGIKEQQQKQKQEEEPLEVQRYRAELSEDDIIVIPAAYPFVINATSNLNFIAFGINAENNQRNFLAGEKDNVVRQIERQVQELAFPGSAQDVERLLKKQRESYIVDAQPQQKEEGSKGRKGPFPSILGALY
B6: β-conglycinin β subunit mutant 39335-38 (other)
chain: MDYKDDDDKLKVREDENNPFYLRSSNSFQTLFENQNGRIRLIQRFNKRSPQLENLRDYRIVQFQSKPNTIILPHHADADFIIIILSGRAILTLVNNDDRDSYNIHPGDAQRIPAGTTYYIINPHDHQNLKIIKIAIPVNKPGRYDDFFLSSTQAQQSYLQGFSHNILETSFHSEFEEINRVLLGEEEEQRQQEGVIVELSKEQIRQLSRRAKSSSRKTISSEDEPFNLRSRNPIYSNNFGKFFEITPEKTPQLRDLDIFLSSVDINEGALILPHFNSKAIVILVINEGDANIELVGIKEQQQKQKQEEEPLEVQRYRAELSEDDVFVIPAAYPFVVNATSNLNFLAFGINAENNQRNFLAGEKDNVVRQIERQVQELAFPGSAQDVERLLKKQRESYFVDAQPQQKEEGSKGRKGPFPSILGALY
B7: β-conglycinin β subunit mutant 39335-36 (other)
chain: MDYKDDDDKLKVREDENNPFYLRSSNSFQTLFENQNGRIRLIQRFNKRSPQLENLRDYRIVQFQSKPNTIILPHHADADFIIIILSGRAILTLVNNDDRDSYNIHPGDAIRIPAGTTYYIINPHDHQNLKIIKIAIPVNKPGRYDDFFLSSTQAQQSYLQGFSHNILETSFHSEFEEINRVLLGEEEEQRQQEGVIVELSKEQIRQLSRRAKSSSRKTISSEDEPFNLRSRNPIYSNNFGKFFEITPEKTPQLRDLDIFISSVDINEGALILPHFNSKAIVILVINEGDANIEIVGIKEQQQKQKQEEEPLEVQRYRAELSEDDVFVIPAAYPFVINATSNLNFLAFGINAENNQRNFLAGEKDNVVRQIERQVQELAFPGSAQDVERLLKKQRESYFVDAQPQQKEEGSKGRKGPFPSILGALY
B8: β-conglycinin β subunit mutant 39335-64 (other)
chain: MDYKDDDDKLKVREDENNPFYLRSSNSFQTLFENQNGRIRLIQRFNKRSPQLENLRDYRIVQIQSKPNTIILPHHADADFIIIILSGRAIITIVNNDDRDSYNIHPGDAIRIPAGTTYYIINPHDHQNLKIIKIAIPVNKPGRYDDFFLSSTQAQQSYLQGFSHNILETSFHSEFEEINRVLLGEEEEQRQQEGVIVELSKEQIRQLSRRAKSSSRKTISSEDEPFNLRSRNPIYSNNFGKFFEITPEKTPQLRDLDIFISSVDINEGALIIPHFNSKAIVILVINEGDANIEIVGIKEQQQKQKQEEEPLEVQRYRAELSEDDIIVIPAAYPFVINATSNLNFLAFGINAENNQRNFLAGEKDNVVRQIERQVQELAFPGSAQDVERLLKKQRESYFVDAQPQQKEEGSKGRKGPFPSILGALY
B9: β-conglycinin β subunit mutant 39335-49 (other)
chain: MDYKDDDDKLKVREDENNPFYLRSSNSFQTLFENQNGRIRLIQRFNKRSPQLENLRDYRIVQFQSKPNTIILPHHADADFIIIILSGRAILTLVNNDDRDSYNIHPGDAQRIPAGTTYYIINPHDHQNLKIIKIAIPVNKPGRYDDFFLSSTQAQQSYLQGFSHNILETSFHSEFEEINRVLLGEEEEQRQQEGVIVELSKEQIRQLSRRAKSSSRKTISSEDEPFNLRSRNPIYSNNFGKFFEITPEKTPQLRDLDIFISSVDINEGALLLPHFNSKAIVILVINEGDANIELVGIKEQQQKQKQEEEPLEVQRYRAELSEDDIIVIPAAYPFVVNATSNLNIIAIGINAENNQRNFLAGEKDNVVRQIERQVQELAFPGSAQDVERLLKKQRESYFVDAQPQQKEEGSKGRKGPFPSILGALY
B10: β-conglycinin β subunit mutant 39335-57 (other)
chain: MDYKDDDDKLKVREDENNPFYLRSSNSFQTLFENQNGRIRLIQRFNKRSPQLENLRDYRIVQIQSKPNTIILPHHADADFIIIILSGRAIITIVNNDDRDSYNIHPGDAIRIPAGTTYYIINPHDHQNLKIIKIAIPVNKPGRYDDFFLSSTQAQQSYLQGFSHNILETSFHSEFEEINRVLLGEEEEQRQQEGVIVELSKEQIRQLSRRAKSSSRKTISSEDEPFNLRSRNPIYSNNFGKFFEITPEKTPQLRDLDIFISSVDINEGALLLPHFNSKAIVILVINEGDANIEIVGIKEQQQKQKQEEEPLEVQRYRAELSEDDIFVIPAAYPFVINATSNLNFIAFGINAENNQRNFLAGEKDNVVRQIERQVQELAFPGSAQDVERLLKKQRESYFVDAQPQQKEEGSKGRKGPFPSILGALY
B11: β-conglycinin β subunit mutant 39335-66 (other)
chain: MDYKDDDDKLKVREDENNPFYLRSSNSFQTLFENQNGRIRLIQRFNKRSPQLENLRDYRIVQFQSKPNTIILPHHADADFIIIILSGRAILTLVNNDDRDSYNIHPGDAQRIPAGTTYYIINPHDHQNLKIIKIAIPVNKPGRYDDFFLSSTQAQQSYLQGFSHNILETSFHSEFEEINRVLLGEEEEQRQQEGVIVELSKEQIRQLSRRAKSSSRKTISSEDEPFNLRSRNPIYSNNFGKIFEITPEKTPQLRDLDIFLSSVDINEGALLLPHFNSKAIVILVINEGDANIELVGIKEQQQKQKQEEEPLEVQRYRAELSEDDVFVIPAAYPFVVNATSNLNFLAFGINAENNQRNFLAGEKDNVVRQIERQVQELAFPGSAQDVERLLKKQRESYIVDAQPQQKEEGSKGRKGPFPSILGALY
B12: β-conglycinin β subunit mutant 39335-46 (other)
chain: MDYKDDDDKLKVREDENNPFYLRSSNSFQTLFENQNGRIRLIQRFNKRSPQLENLRDYRIVQIQSKPNTIILPHHADADFIIIILSGRAIITIVNNDDRDSYNIHPGDAQRIPAGTTYYIINPHDHQNLKIIKIAIPVNKPGRYDDFFLSSTQAQQSYLQGFSHNILETSFHSEFEEINRVLLGEEEEQRQQEGVIVELSKEQIRQLSRRAKSSSRKTISSEDEPFNLRSRNPIYSNNFGKFFEITPEKTPQLRDLDIFISSVDINEGALLLPHFNSKAIVILVINEGDANIELVGIKEQQQKQKQEEEPLEVQRYRAELSEDDIIVIPAAYPFVVNATSNLNIIAIGINAENNQRNFLAGEKDNVVRQIERQVQELAFPGSAQDVERLLKKQRESYFVDAQPQQKEEGSKGRKGPFPSILGALY
B13: β-conglycinin β subunit mutant 39335-43 (other)
chain: MDYKDDDDKLKVREDENNPFYLRSSNSFQTLFENQNGRIRLIQRFNKRSPQLENLRDYRIVQFQSKPNTIILPHHADADFIIIILSGRAILTLVNNDDRDSYNIHPGDAIRIPAGTTYYIINPHDHQNLKIIKIAIPVNKPGRYDDFFLSSTQAQQSYLQGFSHNILETSFHSEFEEINRVLLGEEEEQRQQEGVIVELSKEQIRQLSRRAKSSSRKTISSEDEPFNLRSRNPIYSNNFGKIFEITPEKTPQLRDLDIFLSSVDINEGALLLPHFNSKAIVILVINEGDANIELVGIKEQQQKQKQEEEPLEVQRYRAELSEDDIIVIPAAYPFVVNATSNLNIIAIGINAENNQRNFLAGEKDNVVRQIERQVQELAFPGSAQDVERLLKKQRESYFVDAQPQQKEEGSKGRKGPFPSILGALY

Target: the molecule itself
Test: sucrose gradient sedimentation, anti-FLAG western (self-assembly)

Binding result, no binding:
B1, B2, B3, B4, B5, B6, B7, B8, B9, B10, B11, B12, B13
